Common to all, as to assay: EMSA
The target in series [1] is T1, SopB (SopB-G324) (plasmid F (Escherichia coli), UniProt P62558 1-323).
T1 sequence: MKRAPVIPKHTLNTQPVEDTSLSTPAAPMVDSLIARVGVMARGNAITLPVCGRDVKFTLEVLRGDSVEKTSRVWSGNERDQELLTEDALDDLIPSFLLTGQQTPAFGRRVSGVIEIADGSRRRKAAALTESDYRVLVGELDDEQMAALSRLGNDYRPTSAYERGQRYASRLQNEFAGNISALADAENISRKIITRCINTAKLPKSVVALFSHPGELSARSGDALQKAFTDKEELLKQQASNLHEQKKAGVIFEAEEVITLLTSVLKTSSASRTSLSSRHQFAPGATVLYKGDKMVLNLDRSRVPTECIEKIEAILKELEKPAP

Series [2] concerns the target T2, SopB-R219A (plasmid F (Escherichia coli), UniProt P62558 1-323, R219A).
T2 sequence: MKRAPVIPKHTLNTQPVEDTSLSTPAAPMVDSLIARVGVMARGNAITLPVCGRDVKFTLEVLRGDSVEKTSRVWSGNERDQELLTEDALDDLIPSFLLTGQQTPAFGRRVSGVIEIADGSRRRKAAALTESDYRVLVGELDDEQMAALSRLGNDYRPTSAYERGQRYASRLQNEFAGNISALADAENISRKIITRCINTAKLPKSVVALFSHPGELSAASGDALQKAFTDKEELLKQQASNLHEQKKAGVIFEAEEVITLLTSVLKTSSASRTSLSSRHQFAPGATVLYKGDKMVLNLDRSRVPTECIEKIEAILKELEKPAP

Series [3] deals with T3, SopB-R219K (plasmid F (Escherichia coli), UniProt P62558 1-323, R219K).
T3 sequence: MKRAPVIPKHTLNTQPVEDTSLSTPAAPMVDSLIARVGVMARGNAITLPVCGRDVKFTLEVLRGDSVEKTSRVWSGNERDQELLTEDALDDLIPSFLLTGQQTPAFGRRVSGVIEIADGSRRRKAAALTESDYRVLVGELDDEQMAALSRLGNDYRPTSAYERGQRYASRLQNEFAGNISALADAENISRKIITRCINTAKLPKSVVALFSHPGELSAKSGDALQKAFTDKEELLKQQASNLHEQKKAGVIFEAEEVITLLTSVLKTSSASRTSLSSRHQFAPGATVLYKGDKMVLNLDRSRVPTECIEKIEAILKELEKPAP

Series [4] concerns the target T4, ParBPput-R194A (ParBPput-G291-R194A) (Pseudomonas putida, UniProt P0A152 1-290, R194A).
T4 sequence: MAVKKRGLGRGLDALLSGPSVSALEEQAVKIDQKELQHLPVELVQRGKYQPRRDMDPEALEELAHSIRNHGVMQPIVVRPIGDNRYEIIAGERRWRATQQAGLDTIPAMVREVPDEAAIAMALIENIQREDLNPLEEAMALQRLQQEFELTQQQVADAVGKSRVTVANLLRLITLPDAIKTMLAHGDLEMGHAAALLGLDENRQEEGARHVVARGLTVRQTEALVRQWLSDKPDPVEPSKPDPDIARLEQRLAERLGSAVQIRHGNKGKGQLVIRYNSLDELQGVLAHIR

B1: sopC2 (dsDNA)
DNA 1: ATTAGTCTGGGACCACGGTCCCACTCGTAT
DNA 2: ATACGAGTGGGACCGTGGTCCCAGACTAAT
Regarding B1, the binding result in series [1] is given as “binds”. For the same molecule, the results for the binding signal in series [2] and in series [3] were > 200 fold loss vs wild-type SopB and ~100 fold loss vs wild-type SopB, respectively.

B2: parS66 (Pput parS; assignment from listing order) (dsDNA)
DNA 1: ATTAGTCTGTTCCACGTGGAACACTCGTAT
DNA 2: ATACGAGTGTTCCACGTGGAACAGACTAAT
For B2, the binding result in series [4] is “no binding”.

(Values after paper PMC3597684.)
